Source: paper PMC10092738, “Structural insights into the mechanism of adaptive ribosomal modification by Pseudomonas RimK” (Proteins, 2022)

Assays:
RimKPA [1] = target: T1, RimKPA (Pseudomonas aeruginosa, UniProt Q9HTZ2); assay: X-ray crystal structure, […] A; details: ATP binding site; co-purified from expression host; weak density, interpreted as ADP
T1 construct: gene rimK; full ORF in pET29a, C-terminal hexahistidine tag, E. coli BL21 (DE3) pLysS; tetramer
T1 sequence (Q9HTZ2 1-301): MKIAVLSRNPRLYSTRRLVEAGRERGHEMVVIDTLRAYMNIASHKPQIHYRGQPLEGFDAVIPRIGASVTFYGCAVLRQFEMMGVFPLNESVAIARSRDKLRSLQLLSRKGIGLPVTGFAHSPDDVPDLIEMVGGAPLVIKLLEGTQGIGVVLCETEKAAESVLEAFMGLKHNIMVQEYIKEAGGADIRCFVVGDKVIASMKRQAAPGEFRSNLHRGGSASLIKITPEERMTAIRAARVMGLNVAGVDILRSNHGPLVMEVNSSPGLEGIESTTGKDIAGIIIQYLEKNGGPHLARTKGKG

RimKPA [2] = target: T1, RimKPA; assay: PK/LDH-coupled ATPase assay, NADH oxidation at […] nm; type: biochemical; details: activator; 25 uM cdG, 2.5 uM RimK, ATP as substrate; pH 9.0, 20 mM MgSO4, 25 C
RimKPS = target: T2, RimKPS (Pseudomonas syringae group genomosp. 3, UniProt Q88AZ9); assay: as above; type: biochemical; details: activator; 25 uM cdG, 1.5 uM RimK, ATP as substrate; pH 9.0, 20 mM MgSO4, 25 C
T2 construct: gene rimK; full ORF in pET29a, C-terminal hexahistidine tag, E. coli BL21 (DE3) pLysS; tetramer
T2 sequence (Q88AZ9 1-301): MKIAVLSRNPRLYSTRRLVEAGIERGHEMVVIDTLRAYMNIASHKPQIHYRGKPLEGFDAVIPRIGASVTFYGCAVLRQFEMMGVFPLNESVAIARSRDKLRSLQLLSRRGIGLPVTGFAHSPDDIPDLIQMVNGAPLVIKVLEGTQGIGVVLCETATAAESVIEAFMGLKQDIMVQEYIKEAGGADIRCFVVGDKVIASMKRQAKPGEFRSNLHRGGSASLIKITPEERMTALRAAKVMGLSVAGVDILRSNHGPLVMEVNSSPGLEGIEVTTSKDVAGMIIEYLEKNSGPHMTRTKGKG

[3] = target: P. aeruginosa PAO1 RimK (P. aeruginosa PAO1) (UniProt B7V3U4); assay: crystal structure; RimKPA at 17 mg/ml, sitting-drop vapor diffusion at 293 K, 0.2 M potassium sodium tartrate, 0.1 M bis-tris propane pH 7.5, 20% PEG 3350; 2.4 Å, P2(1), eight copies in the asymmetric unit
[4] = target: P. syringae pv. tomato DC3000 RimK (P. syringae pv. tomato DC3000) (UniProt Q88AZ9)
purified protein [5] = substrate: Nc1ncnc2c1ncn2[C@@H]1O[C@H](COP(=O)(O)OP(=O)(O)OP(=O)(O)O)[C@@H](O)[C@H]1O; assay: purified protein; details: 100 mM Tris-HCl pH 9.0, 20 mM MgSO4, 25 C, 1.5 uM RimK, no RimB
purified protein [6] = substrate: Nc1ncnc2c1ncn2[C@@H]1O[C@H](COP(=O)(O)OP(=O)(O)OP(=O)(O)O)[C@@H](O)[C@H]1O; assay: purified protein; type: biochemical, Pseudomonas fluorescens; details: 100 mM Tris-HCl pH 9.0, 20 mM MgSO4, 25 C, 1.5 uM RimK, no RimB
[7] = target: the molecule itself; assay: crystal structure; RimKPS at 3.7 mg/ml, sitting-drop vapor diffusion at 293 K, 0.2 M calcium chloride, 0.1 M HEPES pH 7.0, 20% PEG6000; ATP and cdG in the cryoprotectant; 2.9 Å, P1, 16 copies in the asymmetric unit

## Nc1ncnc2c1ncn2[C@@H]1O[C@H](COP(=O)(O)OP(=O)(O)O)[C@@H](O)[C@H]1O [ADP]
RimKPA [1]
  X-ray crystal structure, 2.4 A: ADP and glutamate, of presumed cellular origin, were resolved in the RimKPA structure

## Nc1nc2c(ncn2[C@@H]2O[C@@H]3COP(=O)(O)O[C@H]4[C@@H](O)[C@H](n5cnc6c(=O)[nH]c(N)nc65)O[C@@H]4COP(=O)(O)O[C@H]3[C@H]2O)c(=O)[nH]1 [cyclic-di-GMP]
RimKPA [2]
  PK/LDH-coupled ATPase assay, NADH oxidation at 340 nm: the addition of cdG stimulated ATPase activity for both proteins
RimKPS
  PK/LDH-coupled ATPase assay, NADH oxidation at 340 nm: the addition of cdG stimulated ATPase activity for both proteins

## P. aeruginosa PAO1 RimK (from UniProt B7V3U4 1-301) (enzyme)
[3]
  stoichiometry N: 4

## RimB of P. syringae (enzyme)
[4]
  RimKPS ATPase activity (linked PK/LDH assay) against RimBPS 0–1.2 mM, fitted K m: 120 µM
  RimKPS ATPase activity (linked PK/LDH assay) against RimBPS 0–1.2 mM, fitted V max: 692

B1: RimKPA (Pseudomonas aeruginosa PAO1) (protein)
chain: T1 sequence (Q9HTZ2 1-301)
Purified protein [5]; a separate series in Figure S1 prints K m = 2.1 mM
  Km: 300 µM

B2: RimKPF (Pseudomonas [fluorescens] SBW25) (protein)
chain: MKIAVLSRNPRLYSTRRLVEAGVERGHEMVVIDTLRAYMNIASHKPQIHYRGKPLEGFDAVIPRIGASVTFYGCAVLRQFEMMGVFPLNESVAIARSRDKLRSLQLLSRRGIGLPVTGFAHSPDDIPDLIDMVNGAPLVIKVLEGTQGIGVVLCETATAAESVIEAFMGLKQNIMVQEYIKEAGGADIRCFVVGDKVIAAMKRQAKPGEFRSNLHRGGSASLIKITPEERMTALRAAKVMGLSVAGVDILRSNHGPLVMEVNSSPGLEGIETTTGKNVAGIIIEHLEKNGGPNMTRTKGKG
notes: purified recombinant RimK
Purified protein [6]
  Km: 800 µM

B3: P. syringae pv. tomato DC3000 RimK (enzyme, UniProt Q88AZ9 1-301, looked up)
chain: T2 sequence (Q88AZ9 1-301)
notes: RimK, ATP-dependent glutamate ligase, P. syringae pv. tomato DC3000; open reading frame of rimK cloned into pET29a; Tetramer in the crystal; 16 copies in the asymmetric unit; also called RimKPS; RimKPs; source: E. coli BL21 (DE3) pLysS, purified (His-Trap Excel column)
[7]
  stoichiometry N: 4
Purified protein [5]; a separate series in Figure S1 prints K m = 1.85 mM
  Km: 1000 µM
